Reference: patent US20100015637A1 (AbbVie / Abbott, published 2010)
One block for each molecule: values may come before it.

Legend:
[1] = target: human PlGF-1 comprising amino acids 1-137 produced in human embryonic kidney cells (human) (UniProt P49763); assay: Format 2 …, capture MAb264, detection Pb264; sFlt-1 3067 pmol/L (ratio 100)
[2] = target: T1, CHO human PlGF-1 fragment (comprising amino acids 17-131; ATCC PTA-8540) (human, UniProt P49763 35-221); assay: … sandwich, capture MAb826, detection pAb264; antigen 15 pg/mL
T1 sequence: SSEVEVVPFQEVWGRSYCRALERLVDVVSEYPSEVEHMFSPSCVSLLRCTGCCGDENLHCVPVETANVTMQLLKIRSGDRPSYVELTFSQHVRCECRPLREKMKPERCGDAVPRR

[3] = target: T2, CHO human PlGF-1 comprising amino acids 1-137 (human PlGF-1-His (1-131), CHO 6305) (human, UniProt P49763 19-221, N-glycans at N21 (completely glycosylated) and N89 (partially glycosylated)); assay: as above
T2 construct: Mature human PlGF-1 with 6xHis tag (137 amino acids); also called CHO (1-137)
T2 sequence: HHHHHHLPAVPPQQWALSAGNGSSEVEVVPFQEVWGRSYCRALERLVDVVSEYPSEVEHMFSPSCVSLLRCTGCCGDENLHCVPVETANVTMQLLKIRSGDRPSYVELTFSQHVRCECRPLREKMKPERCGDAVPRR

[4] = target: T3, human PlGF-1 comprising amino acids 1-137 produced in human embryonic kidney cells (human, UniProt P49763 19-221); assay: as above
T3 construct: Mature human PlGF-1 with 6xHis tag; also called HEK (1-137); full length HEK human PlGF-1 (1-137)
T3 sequence: T2 sequence

[5] = target: T4, human PlGF-1 fragment (comprising amino acids 17-131) produced in human embryonic kidney cells (human, UniProt P49763 35-221); assay: as above
T4 sequence: T1 sequence

[6] = target: T1, CHO human PlGF-1 fragment (comprising …); assay: … sandwich, capture MAb826, detection pAb264; antigen 0 pg/mL (blank)
[7] = target: T2, CHO human PlGF-1 comprising amino acids …; assay: as above
[8] = target: T3, human PlGF-1 comprising amino acids …; assay: as above
[9] = target: T4, human PlGF-1 fragment (comprising amino …); assay: as above
[10] = target: recombinant human PlGF-1 (comprising amino acids 1-131) expressed in E. coli (R&D Systems) (human) (UniProt P49763); assay: SPR (BIAcore 2000); MAb captured on anti-mouse IgG chip, antigen in solution; 1:1 fit with mass transport
[11] = target: T5, CHO-sourced human PlGF-1 (comprising amino acids 1-131; ATCC PTA-8537) (human, UniProt P49763 19-221, glycosylated (CHO-expressed)); assay: as above
T5 sequence: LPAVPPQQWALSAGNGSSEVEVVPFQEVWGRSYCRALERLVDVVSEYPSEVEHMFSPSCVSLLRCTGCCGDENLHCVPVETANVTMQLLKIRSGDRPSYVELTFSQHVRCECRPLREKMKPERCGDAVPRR
Procedure: (§1) First, a ˜5,500 RU rabbit anti-mouse IgG Capture Biosensor was created by amine-coupling rabbit anti-mouse IgG antibody (BIAcore® International AB, a GE Healthcare company, Uppsala, Sweden) to a CM4 biosensor chip (BIAcore® International AB, a GE Healthcare company, Uppsala, Sweden) via EDC/NHS/Ethanolamine chemistry provided in an Amine Coupling Kit (BIAcore® International AB, a GE Healthcare company, Uppsala, Sweden). Human PlGF-1 monoclonal antibodies and human PlGF-1 antigens were diluted into a running buffer (hereinafter “Running Buffer”) composed of HBS-EP buffer (BIAcore® International AB, a GE Healthcare company, Uppsala, Sweden) spiked with 0.1% BSA and 0.1% CM-Dextran.
(§2) After equilibrating the rabbit anti-mouse IgG Capture Biosensor for 5 minutes at 5 μL/minute with Running Buffer, 5 to 10 μL of human PlGF-1 monoclonal antibody was injected over individual flow cells with one flow cell being left blank as a reference flow cell. The flow cells were washed for 6 minutes at 50 μL/minute with Running Buffer before injecting 150 μL of human PlGF-1 or human PlGF-1 fragment antigen at a […] concentration across the biosensor, which was immediately followed by 15 minutes of Running Buffer. The biosensor was regenerated with one 30 μL injections of 10 mM Glycine pH 1.7 (BIAcore® International AB, a GE Healthcare company, Uppsala, Sweden) at a flow rate of 10 μL/minute.

[12] = target: T1, CHO human PlGF-1 fragment (comprising …); assay: as above
Procedure: as §1, §2

[13] = target: T3, human PlGF-1 comprising amino acids …; assay: … sandwich, capture MAb255, detection pAb264; antigen 250 pg/mL

% Inhibition [1]: 95.7%
PlGF-1 Measured [1]: 33.8 pg/mL
Molecule: native sFlt-1, isolated from human placental tissue (from UniProt P17948 27-687) (receptor)

RLU [2]: 11200 RLU
RLU [3]: 10100 RLU
RLU [4]: 15500 RLU
RLU [5]: 12800 RLU
RLU [6]: 6680 RLU
RLU [7]: 6600 RLU
RLU [8]: 6530 RLU
RLU [9]: 6590 RLU
Kd [10]: 0.092 nM
koff [10]: 0.000214 s⁻¹
kon [10]: 2.34e+06 M⁻¹ s⁻¹
Kd [11]: 0.498 nM
koff [11]: 0.000325 s⁻¹
kon [11]: 652000 M⁻¹ s⁻¹
Kd [12]: 0.219 nM
koff [12]: 0.000291 s⁻¹
kon [12]: 1.33e+06 M⁻¹ s⁻¹
B1: monoclonal antibody 2-826-335 (produced by murine hybridoma cell line 2-826-335, ATCC PTA-8539) (antibody, mouse IgG1, V domains shown)
VH: QVQLKQSGPGLVQPSQSLSITCTVSGFSLTTYGIHWVRQSPGKGLEWLGVMWSGGDTDYDAAFISRLSISKDNSKSQVFFKMNSLQANDTGIYYCARYRFYGMDYWGQGTSVTVSS
VL: AIQMTQSSSSFSVSLGDRVTITCKASEDIYNRFAWYQQKPGNAPRLLISGAASLEAGVPSRFSGSGSGQDYTLSITSLQTEDVATYYCQQYWSTPWTFGGGTKLEIKR
notes: also called MAb826

RLU [13]: 559000 RLU
Kd [10]: 0.368 nM
koff [10]: 0.000121 s⁻¹
kon [10]: 329000 M⁻¹ s⁻¹
Kd [11]: 1.7 nM
koff [11]: 0.000123 s⁻¹
kon [11]: 73000 M⁻¹ s⁻¹
Kd [12]: 0.71 nM
koff [12]: 0.000129 s⁻¹
kon [12]: 182000 M⁻¹ s⁻¹
B2: monoclonal antibody 1-255-713 (produced by murine hybridoma cell line 1-255-713, ATCC PTA-8536) (antibody, mouse IgG2a, V domains shown)
VH: QVHLQQSGAELMKPGASVKISCKATGYTFSSYWIEWVKQRPGHGLEWIGEILPGSVSNNFNEKFKDKATLTADPSSNTAYIQVSSLTSEDSAVYYCARSTGFYYGGNYFDHWGQGTTLAVSS
VL: DVVMTQTPLSLPVSPGDQASISCRSSQSLVHSNGHTYLHWYLQKPGQSPKLLIYKVSNRFSGVPDRVSGSGSGTDFTLKISRVEAEDLGVYFCSQSTHVPPTFGGGTKLEIKR
notes: also called MAb255
